Source: publication PMC3458577 (Nucleic Acids Research, 2012)
Blank lines part the entries; values can stand above or below the binder they belong to.

Target: Recombinant human WRN protein (wild type) (human, UniProt Q14191 1-1432)
Test: co-IP

Recombinant human WRN protein (wild type), sequence (Q14191 whole entry): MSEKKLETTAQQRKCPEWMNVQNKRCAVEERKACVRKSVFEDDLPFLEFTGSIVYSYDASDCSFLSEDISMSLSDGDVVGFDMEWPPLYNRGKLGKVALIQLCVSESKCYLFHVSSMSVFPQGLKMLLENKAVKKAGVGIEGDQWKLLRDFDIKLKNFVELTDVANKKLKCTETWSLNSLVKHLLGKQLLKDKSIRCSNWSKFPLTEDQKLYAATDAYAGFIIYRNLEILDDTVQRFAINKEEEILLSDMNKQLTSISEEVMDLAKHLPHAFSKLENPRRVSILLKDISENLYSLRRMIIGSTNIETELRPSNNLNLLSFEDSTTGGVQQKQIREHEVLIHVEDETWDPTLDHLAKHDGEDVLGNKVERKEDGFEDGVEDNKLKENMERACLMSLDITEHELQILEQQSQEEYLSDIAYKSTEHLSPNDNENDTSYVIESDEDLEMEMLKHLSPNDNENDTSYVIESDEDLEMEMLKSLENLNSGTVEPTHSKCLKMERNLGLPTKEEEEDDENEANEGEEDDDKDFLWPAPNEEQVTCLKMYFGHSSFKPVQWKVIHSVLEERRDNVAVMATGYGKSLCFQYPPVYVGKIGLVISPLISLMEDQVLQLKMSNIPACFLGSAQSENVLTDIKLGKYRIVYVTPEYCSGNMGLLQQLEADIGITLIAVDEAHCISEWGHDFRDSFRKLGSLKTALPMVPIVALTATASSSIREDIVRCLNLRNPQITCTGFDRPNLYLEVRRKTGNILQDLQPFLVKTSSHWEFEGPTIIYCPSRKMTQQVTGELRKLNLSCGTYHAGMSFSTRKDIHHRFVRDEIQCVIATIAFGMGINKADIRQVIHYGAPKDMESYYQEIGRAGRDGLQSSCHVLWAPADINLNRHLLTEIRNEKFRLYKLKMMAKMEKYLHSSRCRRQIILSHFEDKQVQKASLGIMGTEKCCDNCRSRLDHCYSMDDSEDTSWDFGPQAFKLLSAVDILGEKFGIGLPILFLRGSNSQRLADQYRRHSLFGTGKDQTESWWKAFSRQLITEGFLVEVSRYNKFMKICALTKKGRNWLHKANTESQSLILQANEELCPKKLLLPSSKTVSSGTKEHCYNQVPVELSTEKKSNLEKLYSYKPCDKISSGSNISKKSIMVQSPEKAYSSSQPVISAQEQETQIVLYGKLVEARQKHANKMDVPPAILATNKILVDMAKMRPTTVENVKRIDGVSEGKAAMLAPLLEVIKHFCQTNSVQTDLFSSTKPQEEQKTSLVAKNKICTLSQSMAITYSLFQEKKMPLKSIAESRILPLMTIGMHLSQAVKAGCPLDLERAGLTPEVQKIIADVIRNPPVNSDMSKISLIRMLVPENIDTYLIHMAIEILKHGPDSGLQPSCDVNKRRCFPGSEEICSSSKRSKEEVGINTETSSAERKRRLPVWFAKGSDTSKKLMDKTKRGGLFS

binding result: binds
B1: (His)6-tagged Polλ244–575 (domain or fragment, human, UniProt Q9UGP5 244-575, looked up)
chain: PSSQKATNHNLHITEKLEVLAKAYSVQGDKWRALGYAKAINALKSFHKPVTSYQEACSIPGIGKRMAEKIIEILESGHLRKLDHISESVPVLELFSNIWGAGTKTAQMWYQQGFRSLEDIRSQASLTTQQAIGLKHYSDFLERMPREEATEIEQTVQKAAQAFNSGLLCVACGSYRRGKATCGDVDVLITHPDGRSHRGIFSRLLDSLRQEGFLTDDLVSQEENGQQQKYLGVCRLPGPGRRHRRLDIIVVPYSEFACALLYFTGSAHFNRSMRALAKTKGMSLSEHALSTAVVRNTHGCKVGPGRVLPTPTEKDVFRLLGLPYREPAERDW

binding result: binds
B2: Recombinant human Polλ protein (enzyme, UniProt Q9UGP5 1-575, looked up)
chain: MDPRGILKAFPKRQKIHADASSKVLAKIPRREEGEEAEEWLSSLRAHVVRTGIGRARAELFEKQIVQHGGQLCPAQGPGVTHIVVDEGMDYERALRLLRLPQLPPGAQLVKSAWLSLCLQERRLVDVAGFSIFIPSRYLDHPQPSKAEQDASIPPGTHEALLQTALSPPPPPTRPVSPPQKAKEAPNTQAQPISDDEASDGEETQVSAADLEALISGHYPTSLEGDCEPSPAPAVLDKWVCAQPSSQKATNHNLHITEKLEVLAKAYSVQGDKWRALGYAKAINALKSFHKPVTSYQEACSIPGIGKRMAEKIIEILESGHLRKLDHISESVPVLELFSNIWGAGTKTAQMWYQQGFRSLEDIRSQASLTTQQAIGLKHYSDFLERMPREEATEIEQTVQKAAQAFNSGLLCVACGSYRRGKATCGDVDVLITHPDGRSHRGIFSRLLDSLRQEGFLTDDLVSQEENGQQQKYLGVCRLPGPGRRHRRLDIIVVPYSEFACALLYFTGSAHFNRSMRALAKTKGMSLSEHALSTAVVRNTHGCKVGPGRVLPTPTEKDVFRLLGLPYREPAERDW
